Data from US20250051437A1 (University of California, published 2025).
Where no end group is shown, it is not given here.

How the values were obtained:
[1] = target: T1, recombinant CDH17 extracellular domain (ECD) with 6x His tag (human, UniProt Q12864 23-787); test: ELISA on recombinant CDH17 ECD-6xHis
T1 construct: also called Recombinant CDH17 ECD-6xhis tag

[2] = target: T2, human cadherin-17 (CDH17), endogenously expressed on human cancer cell lines (LS513, SNU-C1, PaTu8988s, … (human, UniProt Q12864 23-832)); test: flow cytometry (iQue) on LS513 cells, 1 µg Ab
T2 construct: also called LS513 (Colon, CDH17+); HPAF2

[3] = target: T2, human cadherin-17 (CDH17), endogenously …; test: flow cytometry on LS513 cells (CDH17+), 20 µg/ml
[4] = target: T2, human cadherin-17 (CDH17), endogenously …; test: flow cytometry (iQue) on PATU8988S cells, 1 µg Ab
[5] = target: T3, human CDH17-mGFP fusion protein overexpressed on HEK293T cells (clone G11) (human, UniProt Q12864 23-832); test: flow cytometry on HEK293T human CDH17mGFP G11, 20 µg/ml
T3 construct: also called HEK293T CDH17mGFP Clone G11; HEK293T Human CDH17mGFP G11; not shown: mGFP fluorescent protein fused to CDH17

[6] = target: T4, mouse CDH17-mGFP fusion protein overexpressed on HEK293T cells (mouse, UniProt Q9R100 26-827); test: flow cytometry (BD C6) on HEK293T Mouse CDH17 mGFP cells
T4 construct: also called HEK293T Mouse CDH17mGFP mass; not shown: mGFP fluorescent protein
T4 sequence (Q9R100 26-827): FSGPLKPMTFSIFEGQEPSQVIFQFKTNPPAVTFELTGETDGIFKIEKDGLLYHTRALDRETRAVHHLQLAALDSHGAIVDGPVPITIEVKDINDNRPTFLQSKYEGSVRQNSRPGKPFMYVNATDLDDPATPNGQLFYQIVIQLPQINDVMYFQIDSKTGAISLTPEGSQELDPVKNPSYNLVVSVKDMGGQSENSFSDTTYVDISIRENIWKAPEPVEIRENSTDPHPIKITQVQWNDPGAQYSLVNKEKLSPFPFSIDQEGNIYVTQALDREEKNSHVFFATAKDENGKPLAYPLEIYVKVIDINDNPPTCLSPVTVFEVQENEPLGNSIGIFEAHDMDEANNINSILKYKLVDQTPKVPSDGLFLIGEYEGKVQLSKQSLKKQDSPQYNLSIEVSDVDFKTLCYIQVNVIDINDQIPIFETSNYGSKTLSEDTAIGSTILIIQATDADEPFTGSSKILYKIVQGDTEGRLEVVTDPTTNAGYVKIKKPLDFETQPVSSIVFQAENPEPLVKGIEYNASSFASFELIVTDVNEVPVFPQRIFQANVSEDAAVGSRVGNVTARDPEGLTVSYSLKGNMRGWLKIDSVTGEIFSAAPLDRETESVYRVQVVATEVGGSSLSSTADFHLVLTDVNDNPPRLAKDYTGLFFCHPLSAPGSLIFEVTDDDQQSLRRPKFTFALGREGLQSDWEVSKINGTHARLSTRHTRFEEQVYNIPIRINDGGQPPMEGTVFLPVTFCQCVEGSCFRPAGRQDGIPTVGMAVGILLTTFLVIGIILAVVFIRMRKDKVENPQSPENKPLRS
Procedure: To determine relative antigen binding strengths of the humanized antibodies, FACS assays were carried out as essentially described in Example 1. […] Using a BD Biosciences Accuri™ C6 Flow Cytometer (San Jose, CA), antibody binding based on Alexa Fluor® 647 fluorescence was measured in the FL4-H channel and fusion protein overexpression based on GFP fluorescence was measured in the FL1-H channel.

[7] = target: T3, human CDH17-mGFP fusion protein …; test: KinExA, cell-based, HEK293T overexpressing human CDH17-mGFP (FIG. 16)
Procedure: (§1) The cell-based antibody affinity (KD) of the anti-CDH17 antibodies was measured by KinExA 4000 (Sapidyne Instrument, Boise, Idaho). Briefly, HEK293T overexpressing CDH17-fluorescent protein fusion (i.e., human CDH17-mGFP, monkey CDH17-mGFP, mouse CDH17-mGFP or rat CDH17-mGFP) were detached with Versene and equilibrated with either 50 pM, 200 pM, 20 nM, or 50 nM antibody in 2% FBS/DMEM at 4° C. overnight. The cell concentration started at 5×10⁶ cells/mL or 1×10⁷ cells/mL and 2-fold serial dilutions were performed up to 10 points. The next day, the cells were centrifuged at 1500 rpm for 10 min and the supernatants were saved. […] In contrast, while the humanized anti-CDH17 antibody, 07-0653-h43, fails to bind mouse CDH17 protein, it binds rat CDH17 protein equally well as to human and monkey CDH17 protein such that its Kp is less than about 1 nM for human, monkey and rat CDH17 proteins with overlapping 95% confidence interval values.

[8] = target: T5, rat CDH17 fused to moxGFP, overexpressed on HEK293T cells (rat, UniProt P55281 22-827); test: flow cytometry on HEK293T rat CDH17mGFP mass population, 20 µg/ml
T5 construct: whole, on cells; also called HEK293T Rat CDH17mGFP mass pop; rat CDH17-moxGFP
T5 sequence (P55281 22-827): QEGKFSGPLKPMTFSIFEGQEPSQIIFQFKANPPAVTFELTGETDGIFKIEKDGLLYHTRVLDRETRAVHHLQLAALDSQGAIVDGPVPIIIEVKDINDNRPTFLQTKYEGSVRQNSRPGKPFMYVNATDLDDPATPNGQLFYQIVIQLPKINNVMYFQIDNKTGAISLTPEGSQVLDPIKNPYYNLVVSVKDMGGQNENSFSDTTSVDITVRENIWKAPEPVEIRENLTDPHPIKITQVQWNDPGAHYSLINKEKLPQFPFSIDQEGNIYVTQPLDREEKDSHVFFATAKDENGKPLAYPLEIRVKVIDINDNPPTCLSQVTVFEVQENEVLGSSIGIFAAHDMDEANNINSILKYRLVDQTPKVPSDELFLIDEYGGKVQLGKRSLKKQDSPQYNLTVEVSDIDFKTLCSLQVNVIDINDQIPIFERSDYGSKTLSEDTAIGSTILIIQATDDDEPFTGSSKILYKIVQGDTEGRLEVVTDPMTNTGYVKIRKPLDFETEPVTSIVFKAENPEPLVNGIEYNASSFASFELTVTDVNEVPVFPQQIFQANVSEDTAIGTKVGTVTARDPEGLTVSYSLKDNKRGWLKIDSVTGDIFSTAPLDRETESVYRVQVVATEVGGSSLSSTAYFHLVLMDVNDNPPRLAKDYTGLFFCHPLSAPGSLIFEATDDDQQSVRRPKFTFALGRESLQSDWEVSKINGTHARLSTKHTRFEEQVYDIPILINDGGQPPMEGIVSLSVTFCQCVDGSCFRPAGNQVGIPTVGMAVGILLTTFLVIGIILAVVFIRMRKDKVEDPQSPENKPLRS

[9] = target: T6, biotinylated 15-mer peptide 18 of the CDH17 ECD peptide scan (human, also: biotin label, position not given here); test: titration ELISA on biotinylated peptide captured on streptavidin plates
T6 peptide: THNLQVAALDANGII
Procedure: (§2) For the ELISA, 1 μl of each biotinylated peptide plus 99 μl of peptide coating buffer (40% DMSO and 0.05% Tween20 in PBS) was added to a streptavidin-coated microtiter plate well. The plate was incubated overnight at 4° C. without shaking. The plate was then washed 4 times with 300 μl washing buffer (PBS with 0.05% Tween20). 200 μl blocking buffer (PBS with 400 μM biotin and 20% sucrose) was added to each well and the plate incubated for 30 min at room temperature without shaking. After 3 times washing with washing buffer, 300 μl of SuperBlock T20 (TBS) Blocking Buffer (Thermo Scientific, #37536) was applied per well and incubated at room temperature for 1 hour. […]

[10] = target: T7, biotinylated 15-mer peptide 19 of the CDH17 ECD peptide scan (human, also: biotin label, position not given here); test: as above
T7 peptide: QVAALDANGIIVEGP
Procedure: as §2

[11] = target: T8, biotinylated 15-mer peptide 20 of the CDH17 ECD peptide scan (human, also: biotin label, position not given here); test: as above
T8 peptide: LDANGIIVEGPVPIT
Procedure: as §2

[12] = target: T3, human CDH17-mGFP fusion protein …; test: KinExA, cell-based, HEK293T human CDH17mGFP G11 (same value as r12)
Procedure: as §1

[13] = target: T4, mouse CDH17-mGFP fusion protein …; test: flow cytometry on HEK293T mouse CDH17mGFP mass population, 20 µg/ml
[14] = target: T3, human CDH17-mGFP fusion protein …; test: flow cytometry (iQue) on HEK293T CDH17 mGFP clone G11 (human), 1 µg Ab
[15] = target: T3, human CDH17-mGFP fusion protein …; test: flow cytometry (iQue) on HEK293T CDH17 mGFP clone G11 (human), 0.2 µg Ab

B1: humanized anti-CDH17 antibody 07-0663-h7 (antibody, human IgG1, kappa, V domains shown)
VH: QVQLVQSGAEVKKPGSSVKISCKVSGYTFTDHTIHWMRQAPGQGLEWIGYIFPRDDIVVYAQKFQGRATLTADKSTSTAYMELSSLRSEDTAVYYCARPPYYYSRNFYFDYWGQGTTLTVSS
VL: DIQMTQSPSSLSASVGDRVTITCRVSSIISSSKLHWYQQKPGKAPKPLIYGTSTLASGVPSRFSGSGSGTDYTLTISSLQPEDFATYYCQQWSNYPFTFGQGTKLEIKR
notes: Human IgG1 / kappa
[1]
  EC50: 1.22 nM
[2]
  Antibody Binding Activity by Flow iQue: 2.3e+06
[3]
  Antibody Binding Activity by Flow Cytometry: 74700
[4]
  Antibody Binding Activity by Flow iQue: 101000
[5]
  Cross Reactivity by Flow: 57600
[6]
  binding result: no binding (tested: 1 µg)
[7]
  Kd: < 1 nM
[8]
  Cross Reactivity by Flow: 2160
[9]
  binding result: binds
[10]
  binding result: binds
[11]
  binding result: binds
[12]
  Kd: 0.152 nM
[13]
  Cross Reactivity by Flow: 2420
[14]
  Antibody Binding Activity by Flow iQue: 172000
[15]
  Antibody Binding Activity by Flow iQue: 57600
